Assay results: patent US20240166755A1, “CHIMERIC ANTIGEN RECEPTORS TARGETING CANCER” (University of Southern California, priority 2016, published 2024)

B1: CD8SP-AB317-(vL-vH)-Myc-CD28z-T2A-PAC(031615-T04): CAR construct targeting MPL, AB317 scFv, CD28 costimulatory domain (protein)
chain: MALPVTALLLPLALLLHAARPDIVLTQSPASLAVSLGQSVTISCRASESVEYYGTSLMQWYQQKPGQPPKLLIYGASNVESGVPARFSGSGSGTDFSLNIHPVEEDDIAMYFCQQSRKVPWTFGGGTKLEIKGGGGSGGGGSGGGGSEVKLVESGGGLVKPGGSRKLSCAASGFTFSSYTMSWVRQTPAKRLEWVATISSGSSTIYYADTVKGRFTISRDNAKNTLFLQMTSLRSEDTAMYYCARRWFLDCWGQGTTLTVSSTREQKLISEEDLKIEVMYPPPYLDNEKSNGTIIHVKGKHLCPSPLFPGPSKPFWVLVVVGGVLACYSLLVTVAFIIFWVRSKRSRLLHSDYMNMTPRRPGPTRKHYQPYAPPRDFAAYRSRVKFSRSADAPAYQQGQNQLYNELNLGRREEYDVLDKRRGRDPEMGGKPRRKNPQEGLYNELQKDKMAEAYSEIGMKGERRRGKGHDGLYQGLSTATKDTYDALHMQALPPRSSGSGEGRGSLLTCGDVEENPGPHMTEYKPTVRLATRDDVPRAVRTLAAAFADYPATRHTVDPDRHIERVTELQELFLTRVGLDIGKVWVADDGAAVAVWTTPESVEAGAVFAEIGPRMAELSGSRLAAQQQMEGLLAPHRPKEPAWFLATVGVSPDHQGKGLGSAVVLPGVEAAERAGVPAFLETSAPRNLPFYERLGFTVTADVEVPEGPRTWCMTRKPGA
modifications: listed as DNA
B2: CD8SP-12E10-(vL-vH)-Myc-CD28z-T2A-PAC(031615-S03): CAR construct targeting MPL, 12E10 scFv, CD28 costimulatory domain (protein)
chain: MALPVTALLLPLALLLHAARPDQVQLQQSGPGLVKPSETLSLTCTVSGDSISSYYWSWIRQPPGKGLEWIGYIYYSGSTNYNPSLKSRVTISVDTSKSQFSLKLSSVTAADTAVYYCARGRYFDVWGRGTMVTSSGGGGSGGGGSGGGGSSSYVLTQPPSVSGSPGQSITISCTGTSSDVGGYNYVSWYQQHPGKAPKLMIYEGSKRPSGVSNRFSGSKSGNTASLTISGLQAEDEADYYCSSYTTRSTRVFGGGTKLTVLGAAATREQKLISEEDLKIEVMYPPPYLDNEKSNGTIIHVKGKHLCPSPLFPGPSKPFWVLVVVGGVLACYSLLVTVAFIIFWVRSKRSRLLHSDYMNMTPRRPGPTRKHYQPYAPPRDFAAYRSRVKFSRSADAPAYQQGQNQLYNELNLGRREEYDVLDKRRGRDPEMGGKPRRKNPQEGLYNELQKDKMAEAYSEIGMKGERRRGKGHDGLYQGLSTATKDTYDALHMQALPPRSSGSGEGRGSLLTCGDVEENPGPHMTEYKPTVRLATRDDVPRAVRTLAAAFADYPATRHTVDPDRHIERVTELQELFLTRVGLDIGKVWVADDGAAVAVWTTPESVEAGAVFAEIGPRMAELSGSRLAAQQQMEGLLAPHRPKEPAWFLATVGVSPDHQGKGLGSAVVLPGVEAAERAGVPAFLETSAPRNLPFYERLGFTVTADVEVPEGPRTWCMTRKPGA
modifications: listed as DNA
B3: CD8SP-178-(vL-vH)-Myc-CD28z-T2A-PAC(031615-R04): CAR construct targeting MPL, 178 scFv, CD28 costimulatory domain (protein)
chain: MALPVTALLLPLALLLHAARPDIVMTQAAPSIPVTPGESVSISCRSDKSLLHSNGNTYLFWFLQRPGQSPQLLIYRMSNLASGVPDRFSGSGSGTAFTLRISGVEAEDVGVYYCMQHLEYPYTFGGGTKLEIKGGGGSGGGGSGGGGSQVQLQQSGPELVKPGASVKMSCKASGYAFSSSWLNWVRQRPGKGLEWIGRIYPGDGENHYNGKFKGKATLTADKSSSTGYMQLSSLTSEDSAVYFCASYYEGGYWGQGTLITVSATREQKLISEEDLKIEVMYPPPYLDNEKSNGTIIHVKGKHLCPSPLFPGPSKPFWVLVVVGGVLACYSLLVTVAFIIFWVRSKRSRLLHSDYMNMTPRRPGPTRKHYQPYAPPRDFAAYRSRVKFSRSADAPAYQQGQNQLYNELNLGRREEYDVLDKRRGRDPEMGGKPRRKNPQEGLYNELQKDKMAEAYSEIGMKGERRRGKGHDGLYQGLSTATKDTYDALHMQALPPRSSGSGEGRGSLLTCGDVEENPGPHMTEYKPTVRLATRDDVPRAVRTLAAAFADYPATRHTVDPDRHIERVTELQELFLTRVGLDIGKVWVADDGAAVAVWTTPESVEAGAVFAEIGPRMAELSGSRLAAQQQMEGLLAPHRPKEPAWFLATVGVSPDHQGKGLGSAVVLPGVEAAERAGVPAFLETSAPRNLPFYERLGFTVTADVEVPEGPRTWCMTRKPGA
modifications: listed as DNA
B4: CD8SP-MPL-VB22Bw4-(vL-vH)-Myc-CD28z-T2A-PAC(031615-B06): CAR construct targeting MPL, VB22Bw4 scFv, CD28 costimulatory domain (protein)
chain: MALPVTALLLPLALLLHAARPDDIVMTQSPLSLPVTPGEPASISCRSSKSLLHSNGNTYLYWFLQKPGQSPQLLIYRMSNLASGVPDRFSGSGSGTDFTLKISRVEAEDVGVYYFMQHIEYPFTFGQGTKLEIKGGGGSGGGGSGGGGSQVQLVQSGPEVKKPGASVKVSCKASGYTFTNSWMNWVRQRPGKGLEWIGRIYPGDGETIYNGKFRVRVTITADESTSTAYMQLSSLRSEDTAVYYCARGYDDYSFAYWGQGTTVTVSSTREQKLISEEDLKIEVMYPPPYLDNEKSNGTIIHVKGKHLCPSPLFPGPSKPFWVLVVVGGVLACYSLLVTVAFIIFWVRSKRSRLLHSDYMNMTPRRPGPTRKHYQPYAPPRDFAAYRSRVKFSRSADAPAYQQGQNQLYNELNLGRREEYDVLDKRRGRDPEMGGKPRRKNPQEGLYNELQKDKMAEAYSEIGMKGERRRGKGHDGLYQGLSTATKDTYDALHMQALPPRSSGSGEGRGSLLTCGDVEENPGPHMTEYKPTVRLATRDDVPRAVRTLAAAFADYPATRHTVDPDRHIERVTELQELFLTRVGLDIGKVWVADDGAAVAVWTTPESVEAGAVFAEIGPRMAELSGSRLAAQQQMEGLLAPHRPKEPAWFLATVGVSPDHQGKGLGSAVVLPGVEAAERAGVPAFLETSAPRNLPFYERLGFTVTADVEVPEGPRTWCMTRKPGA
modifications: listed as DNA

Assays:
[1] = tested on: Jurkat cells stably expressing MPL and GLuc; assay: GLuc cell death assay, Jurkat-MPL-GLuc target cells; settings: T cells, puromycin selected, E:T 10:1, 4 hours
[2] = tested on: HEL cells stably expressing GLuc; assay: GLuc cell death assay, HEL-GLuc target cells; settings: T cells, puromycin selected, E:T 10:1, 4 hours
Protocol: The blood samples to isolate Peripheral blood mononuclear cells (PBMCs) were obtained from healthy de-identified adult donors. PBMC were isolated from buffy coats by Ficoll-Hypaque gradient centrifugation and re-suspended in XVIVO medium (Lonza) supplanted with 10 ng/ml soluble anti-CD3, 10 ng/ml soluble anti-CD28 and 100 IU recombinant human-IL2. […] The PBMC expressing the indicated CARs and uninfected PBMC were co-cultured with HEL-GLuc target cells for 4 h and lysis of target cells measured by the single-step homogenous GLuc assay by injecting 0.5× CTZ assay buffer as described above.
Cells were selected with puromycin and expanded.
Cells were subsequently co-cultured overnight with HEL.92.1.7 cells that had been engineered to express GLuc.

Molecule	GLuc activity (lysis of target cells) [1]	GLuc activity (lysis of target cells) [2]
B1	stronger	stronger
B2	stronger	
B3	modest	modest
B4	modest	
